Positions count from the first letter of the chain named. Names and notes keep the numbering of the source.

Assay [1] has as its target T1, BL6 mouse SIRP-α protein (mouse (C57BL/6 strain), UniProt P97797 32-148).
T1 construct: Soluble SPR analyte; also called C57BL/6
T1 sequence: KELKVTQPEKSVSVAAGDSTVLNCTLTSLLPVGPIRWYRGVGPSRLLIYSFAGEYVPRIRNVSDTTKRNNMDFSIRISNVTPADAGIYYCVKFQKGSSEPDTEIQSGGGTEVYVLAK
Put plainly: SPR KD (ProteOn XPR36), antibody on chip, SIRP analyte in solution.

Assay [2] addresses T2, human SIRP-α v1 (human, UniProt P78324 31-149).
T2 construct: used as soluble SPR analyte; also called Human V1; hSIRPa v1
The assay is described as follows: SPR (refers to Table M).

Assay [3] deals with T2, human SIRP-α v1. Put plainly: binding affinity KD (SPR; method not restated in Example 7).
Assay [4] has as its target T3, human SIRP-β (human, UniProt O00241 30-148).
T3 construct: also called SIRPb; hSIRPb
The assay is described as above.

In assay [5] the target is T1, BL6 mouse SIRP-α protein. Described as above.
Assay [6] deals with T4, NOD mouse SIRP-α protein (mouse (NOD strain)).
T4 construct: Soluble SPR analyte
T4 chain: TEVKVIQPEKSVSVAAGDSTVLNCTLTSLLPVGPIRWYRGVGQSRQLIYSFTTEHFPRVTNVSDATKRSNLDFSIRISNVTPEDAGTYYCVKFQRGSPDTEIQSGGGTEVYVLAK
The assay is described as above.

Assay [7] addresses T5, cynomolgus SIRP-α (SEQ ID NO:11) (cynomolgus, UniProt Q5TFQ8 30-148 (human entry)).
T5 construct: 'extracellular domain (e.g., the D1 domain)' of a cynomolgus SIRP-α polypeptide; soluble SPR analyte; also called cyno1
T5 chain: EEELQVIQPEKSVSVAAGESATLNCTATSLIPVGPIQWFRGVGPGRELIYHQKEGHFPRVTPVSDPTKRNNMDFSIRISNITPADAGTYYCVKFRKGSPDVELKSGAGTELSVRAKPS
Described as above.

The target of assay [8] is T6, BALBc mouse SIRP-α protein (mouse (BALB/c strain)).
T6 construct: Soluble SPR analyte
T6 chain: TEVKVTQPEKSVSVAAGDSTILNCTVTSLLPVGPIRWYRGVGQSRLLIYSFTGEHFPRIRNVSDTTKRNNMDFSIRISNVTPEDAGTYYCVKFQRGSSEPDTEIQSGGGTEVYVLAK
The description is as above.

Assay [9] concerns the target T7, human SIRP-γ (human, UniProt Q9P1W8 29-147).
T7 construct: also called SIRPg; hSIRPg
The description is as above.

For assay [10], the target named is T8, human SIRP-α v2 (human).
T8 construct: soluble SPR analyte; also called Human V2; hSIRPa v2
T8 sequence (chain, as listed by the source): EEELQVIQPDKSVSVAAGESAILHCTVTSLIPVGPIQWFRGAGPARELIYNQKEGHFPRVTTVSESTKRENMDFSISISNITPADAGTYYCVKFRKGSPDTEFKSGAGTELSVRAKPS
Described as above.

T3 sequence (O00241 30-148): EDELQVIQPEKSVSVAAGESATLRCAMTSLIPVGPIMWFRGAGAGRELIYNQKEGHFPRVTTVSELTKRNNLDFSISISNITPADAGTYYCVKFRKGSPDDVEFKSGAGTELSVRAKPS
T2 sequence (P78324 31-149): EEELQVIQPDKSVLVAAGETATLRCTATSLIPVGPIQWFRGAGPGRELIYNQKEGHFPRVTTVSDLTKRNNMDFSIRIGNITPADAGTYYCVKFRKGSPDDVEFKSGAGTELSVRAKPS
T7 sequence (Q9P1W8 29-147): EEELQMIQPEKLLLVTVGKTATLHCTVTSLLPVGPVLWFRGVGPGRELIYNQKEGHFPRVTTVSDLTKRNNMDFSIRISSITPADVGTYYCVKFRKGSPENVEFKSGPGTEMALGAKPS

B1: Hum8/AB21_HC_Mutall (antibody, V domains shown)
VH: EVQLVESGGGVVQPGGSLRLSCAASGFTFSSNAMSWVRQAPGKGLEWVAGISAGGSDTYYPASVKGRFTISRDNSKNTLYLQMNSLRAEDTAVYYCARETWNHLFDYWGQGTLVTVSS
VL: SYELTQPPSVSVSPGQTARITCSGGAYSSYYYAWYQQKPGQAPVLVIYSDSKRPSGIPERFSGSSSGTTVTLTISGVQAEDEADYYCGGYDQSSYTNPFGGGTKLTVL
B1: the Kd (usually the free concentration of one partner at which half of the binding sites on the other are occupied at equilibrium, for simple one-to-one binding) is 415000 nM in [1] and at most 0.01 nM in assay [2].

B2: Hum9/AB21_HC_Mutall (antibody, V domains shown)
VH: B1 VH
VL: B1 VL with S51D
On to B2, for which the dissociation constant (Kd) was 533000 nM in assay [1] and at most 0.01 nM in [2].

B3: PC301 (antibody, human IgG1, lambda, N297A)
heavy: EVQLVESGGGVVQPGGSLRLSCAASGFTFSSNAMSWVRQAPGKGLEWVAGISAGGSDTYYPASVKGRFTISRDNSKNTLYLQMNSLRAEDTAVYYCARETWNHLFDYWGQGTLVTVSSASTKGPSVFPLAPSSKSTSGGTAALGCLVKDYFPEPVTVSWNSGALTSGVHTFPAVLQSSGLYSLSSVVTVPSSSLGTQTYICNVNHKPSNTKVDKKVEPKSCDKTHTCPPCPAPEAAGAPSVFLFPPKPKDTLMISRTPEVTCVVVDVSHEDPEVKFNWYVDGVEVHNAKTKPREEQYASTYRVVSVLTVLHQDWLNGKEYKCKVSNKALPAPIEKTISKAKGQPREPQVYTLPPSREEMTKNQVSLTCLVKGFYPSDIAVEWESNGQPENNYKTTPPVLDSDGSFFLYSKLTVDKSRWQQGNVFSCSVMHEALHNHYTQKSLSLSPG
light: SYELTQPPSVSVSPGQTARITCSGGSYSSYYYAWYQQKPGQAPVTLIYSDDKRPSNIPERFSGSSSGTTVTLTISGVQAEDEADYYCGGYDQSSYTNPFGGGTKLTVLGQPKAAPSVTLFPPSSEELQANKATLVCLISDFYPGAVTVAWKADSSPVKAGVETTTPSKQSNNKYAASSYLSLTPEQWKSHRSYSCQVTHEGSTVEKTVAPTECS
notes: also called antibody PC301
For B3, the Kd in assay [3] was found to be 0.00206 nM; in [4], 0.0122 nM; in [5], 9.25 nM; in assay [6], 2.93 nM; in [7] it was 0.0389 nM; in assay [8] it was 9.53 nM.

B4: PC367 (antibody, human IgG2, lambda, N297A)
heavy: EVQLVESGGGVVQPGGSLRLSCAASGFTFSSNAMSWVRQAPGKGLEWVAGISAGGSDTYYPASVKGRFTISRDNSKNTLYLQMNSLRAEDTAVYYCARETWNHLFDYWGQGTLVTVSSASTKGPSVFPLAPCSRSTSESTAALGCLVKDYFPEPVTVSWNSGALTSGVHTFPAVLQSSGLYSLSSVVTVPSSNFGTQTYTCNVDHKPSNTKVDKTVERKCCVECPPCPAPPVAGPSVFLFPPKPKDTLMISRTPEVTCVVVDVSHEDPEVQFNWYVDGVEVHNAKTKPREEQFASTFRVVSVLTVVHQDWLNGKEYKCKVSNKGLPAPIEKTISKTKGQPREPQVYTLPPSREEMTKNQVSLTCLVKGFYPSDIAVEWESNGQPENNYKTTPPMLDSDGSFFLYSKLTVDKSRWQQGNVFSCSVMHEALHNHYTQKSLSLSPG
light: B3 light with K104Q, A114N, S116T, S154G, T165K, N171S, N172D
notes: AB21 MutAll VH + human IgG2 N297A; Hum1 VL version 2 + IGLC1 SD light chain
B4: the Kd in assay [3] is 0.00211 nM; in [4], 0.0327 nM; in assay [5], 19.7 nM; in [9], 0.0352 nM; in assay [6] it was 6.37 nM; in assay [10], 0.0823 nM. Also, the equilibrium dissociation constant (Kd) in assay [7] turned out to be 0.0501 nM; in assay [8] it was 7.87 nM.

B5: PC334 (antibody, human IgG1, lambda, N297A)
heavy: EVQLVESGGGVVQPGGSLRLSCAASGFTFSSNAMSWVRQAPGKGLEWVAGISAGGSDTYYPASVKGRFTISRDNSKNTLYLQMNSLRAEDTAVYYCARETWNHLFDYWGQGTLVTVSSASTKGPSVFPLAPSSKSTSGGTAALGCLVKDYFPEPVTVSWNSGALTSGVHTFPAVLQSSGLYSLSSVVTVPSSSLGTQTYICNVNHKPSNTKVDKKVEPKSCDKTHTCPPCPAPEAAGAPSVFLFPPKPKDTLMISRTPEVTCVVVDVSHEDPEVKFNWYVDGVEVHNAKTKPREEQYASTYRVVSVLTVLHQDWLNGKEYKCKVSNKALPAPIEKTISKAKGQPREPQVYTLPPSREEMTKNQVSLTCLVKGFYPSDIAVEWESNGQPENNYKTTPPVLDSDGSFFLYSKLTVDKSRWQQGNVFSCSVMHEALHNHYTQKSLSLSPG
light: B3 light with A114N, S116T, S154G, T165K
notes: Original Hum1 VL + IGLC1 light chain; also called antibody PC334; Hum1_IGLC1
Consider B5, for which the Kd in assay [3] was 0.0151 nM; in assay [4], 0.0371 nM; in assay [5] it was 3.29 nM; in [9] it was 0.0452 nM; in [6] it was 8.19 nM; in [10] it was 0.0438 nM. The figures for the Kd in assay [7] and in assay [8] were 0.0774 nM and 6.75 nM, respectively.
